{"source": "the nanobody polyreactivity screen of Harvey et al. (2022)", "data": [{"assay": "yeast display, Sf9 membrane polyspecificity reagent, FACS + sequencing; frameworks hold sequencing errors", "in_short": "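Sorting gates, low and high (top ~1%), were placed on anti-HA fluorescence to track expression and on streptavidin fluorescence to track reagent binding. A clone's polyreactivity label is taken from the gate it came out of. The reagent was 10% biotinylated, detergent-solubilized Sf9 membrane, applied for 1 hour at 4 °C to galactose-induced yeast display cells.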", "values": [{"sequence": "QVQLVESGGGLVQAGGSLRLSCAASGLTFAQYAMGWYRQAPGKERELVAAITSRGTNTYYADSVKGRFTISRDNAKNTVYLQMNSLKPEDTAVYYCNTYRARLGTTFIDYDYWGQGTQVTVSS", "polyreactivity (PSR sort gate)": "high polyreactivity"}, {"sequence": "QVQLVESGGGLVQAGGSLRLSCAASGLTFASNAMGWYRQAPGKERELVAAISWSDGSTYYADSVKGRFTISRDNAKNTVYLQMNSLKPEDTAVYYCAADPPGFRTYRVGYWGQGTQVTVSW", "polyreactivity (PSR sort gate)": "low polyreactivity"}, {"sequence": "QVQLVESGGGLVQAGGSLRLSCAASGLTFCRYVMGWYRQAPVKERELVAAITSGDSTNYADSVKGRFTISRDNAKNTVYLQTYSLITEVTAGYYCAADYWYRYYIGRNPWECITFDYWGQGTQVTVSS", "polyreactivity (PSR sort gate)": "low polyreactivity"}, {"sequence": "QVQLVESGGGLVQAGGSLRLSCAASGLTFDAYAMGWSRPAPGKERELVAAISWSGGSTYYAASVKGRFTISRDNAKNTVYLQMNSLKPEDTAVYYCNARYAQFRYWGQGTQVTVSS", "polyreactivity (PSR sort gate)": "high polyreactivity"}, {"sequence": "QVQLVESGGGLVQAGGSLRLSCAASGLTFDGYAKGWYRPAPGKERELVAAISSSSGRTYYADSVKGRFTISRDNAKNTVYLQMNSLKPEDTEVYYCNAVTTGVYKDYYYWGQGTQVTVSS", "polyreactivity (PSR sort gate)": "high polyreactivity"}, {"sequence": "QVQLVESGGGLVQAGGSLRLSCAASGLTFDPYAMGWYRQAPGKEREFVATITTSGDSTYYADSVKGRFTISRDNAKNTVYLQMNSLTPEDTAVYYCNTQSRTLGWPLDYWGQGTQVTVSS", "polyreactivity (PSR sort gate)": "high polyreactivity"}, {"sequence": "QVQLVESGGGLVQAGGSLRLSCAASGLTFDYYAMGWYRQAPGKERELVAAISIGGSTNYADSVKGRFTISRDNAKNTVYLQMNSLKPEDTAVYYCNAEFAPWGSAYGHDQYDYWGQGTQVTVSS", "polyreactivity (PSR sort gate)": "low polyreactivity"}, {"sequence": "QVQLVESGGGLVQAGGSLRLSCAASGLTFDYYAMGWYRQAPGKERELVAAISSSGGSTYYADSVKGRFTISRDNAKNTVYLQMNSLKPEDTAVYYCNAGGRRRIFAHSSTGDYWGQGTQVTVSS", "polyreactivity (PSR sort gate)": "high polyreactivity"}, {"sequence": "QVQLVESGGGLVQAGGSLRLSCAASGLTFDYYDMGWYRQAPGKERELVASITWRGSSTYYADSVKGRFTISRDNAKNTVYLQMYSLKPEDTAVYYCAADPQSTIRDYWGQGTQVTVSS", "polyreactivity (PSR sort gate)": "high polyreactivity"}, {"sequence": "QVQLVESGGGLVQAGGSLRLSCAASGLTFDYYVMGWYRQAPGKERELVATISWSGDITYYADSVKGRFTISRDNAKNTVYLQMNSLKPEDTAVYYCATDKSYSSWSAQYDYWGQGTQVTVSS", "polyreactivity (PSR sort gate)": "low polyreactivity"}, {"sequence": "QVQLVESGGGLVQAGGSLRLSCAASGLTFEDNDMGWYRQAPGKERELVAAISSAGSTSYADSVKGRFTISRDNAKNTVYLQRNSLKPDDTAVYYCAKDNSPSYTPAQLDGGDDYWGQGTQVTVSS", "polyreactivity (PSR sort gate)": "low polyreactivity"}, {"sequence": "QVQLVESGGGLVQAGGSLRLSCAASGLTFEHNAMGWYRQAPGKETEFVAVISWRGTSTYYADSVKGRFTISRDNAKNTVYLQMNSLKPEDTAVYYCATRYYGDDGYRYDHWGQGTQVTVSS", "polyreactivity (PSR sort gate)": "high polyreactivity"}, {"sequence": "QVQLVESGGGLVQAGGSLRLSCAASGLTFEKYAMGWYRQAPGKERELVAAISQDGGSTYYADSVKGRFTISRDNAKNTVYLQMNSLKPEDTAVYYCATGLGYFSRLDYWGQGTQVTVSS", "polyreactivity (PSR sort gate)": "low polyreactivity"}, {"sequence": "QVQLVESGGGLVQAGGSLRLSCAASGLTFEWYPMGWSRQAPGKERELVAAITTGGTTNYADSVKGRFTISRDNAKNTVYLQMISLKPEDTAVYYCARLYRSGYEYWGQGTHVTVSS", "polyreactivity (PSR sort gate)": "low polyreactivity"}, {"sequence": "QVQLVESGGGLVQAGGSLRLSCAASGLTFEYYAMGWYRQAPGKERELVAAISRRGSTYYADSVKGRFTISRDNAKNTVYLQMNSLKPEDTAVYYCNAVYYWYKGDYWGQGTQVTVSS", "polyreactivity (PSR sort gate)": "high polyreactivity"}, {"sequence": "QVQLVESGGGLVQAGGSLRLSCAASGLTFFLYAMGWYRQAPGKERELVAAISSRGGSTYYADSVKGRFTISRDNAKNTVYLQMNSLKTEDTAVYYCAAATKGDEDYWGQGTQVTVSS", "polyreactivity (PSR sort gate)": "high polyreactivity"}, {"sequence": "QVQLVESGGGLVQAGGSLRLSCAASGLTFFYYAMGWYRQAPGKERELVASITWRSGSTYYADSVKGRFTISRDNAKNTVYLQMNSLKPEDTAVYYCAAYPYTYLQLMDYWGQGTQVTVSS", "polyreactivity (PSR sort gate)": "high polyreactivity"}]}]}
